As a reminder, the EC50 is the concentration that produces a half-maximal response. A higher EC50 goes with a less potent agent. One may read the Kd as the free concentration of one partner at which half of the binding sites on the other are occupied at equilibrium, for simple one-to-one binding. Read a high Kd as a looser complex. As usually defined, the koff is the first-order rate constant of dissociation. As usually defined, the kon is a measure of how fast the partners come together. Low readings indicate slow association, high ones fast association.

We go through five molecules from EP4755401A1, “PHARMACEUTICAL COMPOSITION CONTAINING ANTIBODY-DRUG CONJUGATE OF GLUCOCORTICOID” (Jiangsu Hengrui Pharmaceuticals Co., Ltd., priority 2023, dated 2025).

Data set [1] has as its target T1, human-derived IL-4Rα on expressing cells (human, UniProt P24394 26-825).
T1 sequence (looked up): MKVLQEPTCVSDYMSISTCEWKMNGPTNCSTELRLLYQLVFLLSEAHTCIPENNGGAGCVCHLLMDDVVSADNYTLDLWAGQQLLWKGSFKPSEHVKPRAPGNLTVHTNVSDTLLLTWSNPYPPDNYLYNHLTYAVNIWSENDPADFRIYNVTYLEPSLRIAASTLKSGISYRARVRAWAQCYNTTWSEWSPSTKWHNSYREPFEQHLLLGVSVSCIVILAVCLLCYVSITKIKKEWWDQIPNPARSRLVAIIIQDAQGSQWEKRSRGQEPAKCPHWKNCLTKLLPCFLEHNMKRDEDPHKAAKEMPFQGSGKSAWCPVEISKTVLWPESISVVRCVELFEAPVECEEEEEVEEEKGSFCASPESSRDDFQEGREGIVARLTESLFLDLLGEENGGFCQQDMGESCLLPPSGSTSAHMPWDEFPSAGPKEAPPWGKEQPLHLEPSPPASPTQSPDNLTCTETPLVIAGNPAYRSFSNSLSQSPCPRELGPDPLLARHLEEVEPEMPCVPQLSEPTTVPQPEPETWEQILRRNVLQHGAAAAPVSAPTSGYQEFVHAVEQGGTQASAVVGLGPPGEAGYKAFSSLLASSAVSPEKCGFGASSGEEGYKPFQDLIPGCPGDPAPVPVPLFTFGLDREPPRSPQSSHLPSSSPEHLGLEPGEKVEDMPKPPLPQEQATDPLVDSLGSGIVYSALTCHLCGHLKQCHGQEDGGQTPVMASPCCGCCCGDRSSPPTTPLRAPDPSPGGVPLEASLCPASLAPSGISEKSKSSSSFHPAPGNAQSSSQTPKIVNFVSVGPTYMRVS
Put plainly: flow cytometry on TF-1 cells expressing IL-4Rα, anti-His-FITC detection. Background: A flow cytometer gives signals particle by particle.

In data set [2] the target is Biotin-labeled human-derived IL-4Rα protein (SinoBiological, CAT# 10402-H08H-B) (human) (UniProt P24394). Kind of data set: SPR, Biacore 8K, biotin-hIL-4Rα captured on SA chip, test protein as analyte. (SPR reads the build-up and loss of mass on a sensor chip optically.)
Data set [3] in a line: Pharmacokinetic test in a mouse model after intratracheal nebulized administration. The data set is classed as in vivo, C57BL6/J mice. Conditions: mice, ADC-2 100 µg i.t. once; serum, BALF, lung tissue. The source says: Mice received intratracheal (i.t.) nebulized administration. […] Following blood collection, the mice were anesthetized and immobilized. […] Table 4. Administration scheme

In data set [4] the target is T1, human-derived IL-4Rα on expressing cells. Kind of data set: cell-based or functional assay.
In data set [5] the target is T2, Biotin-labeled human-derived IL-4Rα protein (SinoBiological, CAT# 10402-H08H-B) (human, UniProt P24394 26-232, biotin-labeled (site not stated)).
T2 construct: Bought reagent, captured on an SA sensor chip; also called hIL-4Rα; human-derived IL-4Rα antigen protein
T2 sequence (looked up): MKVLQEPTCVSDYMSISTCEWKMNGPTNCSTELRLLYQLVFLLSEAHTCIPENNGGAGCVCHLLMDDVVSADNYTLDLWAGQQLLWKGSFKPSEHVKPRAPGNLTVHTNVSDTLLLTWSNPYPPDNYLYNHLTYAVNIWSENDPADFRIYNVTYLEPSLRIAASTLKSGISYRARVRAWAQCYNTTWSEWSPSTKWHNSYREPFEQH
Put plainly: SPR, Biacore 8K, biotin-hIL-4Rα captured on SA chip, test protein as analyte.

Data set [6] has as its target T1, human-derived IL-4Rα on expressing cells. Kind of data set: flow cytometry on TF-1 cells expressing IL-4Rα, anti-hFab-FITC detection.

As for AZD1402-TAG (designed binder), the EC50 in data set [1] is 0.0124 nM. Moreover, in data set [2], the equilibrium dissociation constant (Kd) is 0.0213 nM, the koff was determined as 0.000102 s⁻¹ and the on-rate (kon) was determined as 4.77e+06 M⁻¹ s⁻¹.
For the molecule `CCCC1O[C@@H]2C[C@H]3[C@@H]4CCC5=CC(=O)C=C[C@]5(C)[C@H]4[C@@H](O)C[C@]3(C)[C@]2(C(=O)CO)O1` (some centres unmarked) [budesonide], in data set [3], the “distribution / exposure after intratracheal administration (in words)” value is “very low in all tissues”.

B1: antibody-drug conjugate ADC-2 (Fab, V domains shown)
VH: EVQLVESGGGLVQPGGSLRLSCAASGFTFSDYGMHWVRQAPGKGLEWVAFISSGSSIIYYADIVKGRSTISRDNAKNTLYLQMNSLRAEDTAVYYCTRGNKRGFFDYWGQGTLVTVSS
VL: EIVLTQSPATLSLSPGERATLSCRASSSVPYMYWYQQKPGQAPRLLIYLTSNLASGIPARFSGSGSGTDFTLTISSLEPEDFAVYYCQQWRAYPPMLTFGGGTKVEIKR
modifications: budesonide drug-linker (compound 2, maleimide) conjugated after TCEP reduction of 25G7-Fab; conjugated residues and drug load not stated
As for B1, in data set [4], the “IC50 values for blocking the IL-4 signaling pathway (nM); HEK-Blue IL-4/IL-13 STAT6-SEAP reporter cells” value was 0.68 nM and the “IC50 values for blocking the IL-13 signaling pathway (nM); HEK-Blue IL-4/IL-13 STAT6-SEAP reporter cells” value worked out at 10.6 nM.

B2: 25G7-Fab (Fab, V domains shown)
VH: B1 VH
VL: B1 VL
notes: also called naked anti-25G7-Fab; naked antibody 25G7-Fab
On to B2, for which, in data set [4], the “IC50 values for blocking the IL-4 signaling pathway (nM); HEK-Blue IL-4/IL-13 STAT6-SEAP reporter cells” value was determined as 0.61 nM and the “IC50 values for blocking the IL-13 signaling pathway (nM); HEK-Blue IL-4/IL-13 STAT6-SEAP reporter cells” value is 14.6 nM. In data set [5], this molecule yielded a dissociation constant Kd of 0.0439 nM, an off-rate constant (koff) of 0.000206 s⁻¹ and a kon of 4.69e+06 M⁻¹ s⁻¹. In addition, the response in data set [6] was half-maximal at 0.243 nM (EC50).

B3: hu25G7 (antibody, human IgG4 S228P, kappa, V domains shown)
VH: B1 VH
VL: B1 VL
notes: Full-length humanized anti-IL-4R IgG4 antibody
The molecule B3 had an EC50 in data set [6] of 0.247 nM.
